Measured values taken from the RNAGym collection of RNA variant scans (doi:10.1073/pnas.2313332121).

B1: TPR t1 (parent)
chain: GACCAAUCUGCCCUCAGAGCUCGAGAACAUCUUCGGAUGCAGAGGAGGCAGGCUUCGGUGGCGCGAUAGCGCCAACGUCCUCAACCUCCAAUGCAUCCCACCACAUGAUGAUGCCUGAAGAGCCUUGGUUUUUUG

Variants of: B1
Assay: polymerase ribozyme fitness, log enrichment relative to wild type (log ratio); higher = more active; in vitro selection for triplet polymerase activity
Summary of the method: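 Streptavidin-bead capture of gel-excised extended constructs, followed by RT-PCR, closed a single triplicate in vitro selection round. That round began by annealing PCR-built, transcribed mutant libraries of each subunit of a heterodimeric triplet polymerase ribozyme with a biotinylated primer, the partner subunit and triplets, then incubating them frozen at −7 °C. After Illumina sequencing of inputs and outputs, genotypes needed ≥10 input reads and ≥1 read per output. Fitness is the base-2 logarithm of genotype enrichment over wild-type enrichment, using inverse-variance-weighted replicate averages.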

Variant	polymerase ribozyme fitness (log ratio)
GCCCGACCUGCCAUCAGAGCUCGAGAACAUCUUCGGAUGCAGAGGAGUCUGGCUUCGGUGGCGCGAUAGCGCCAACGUCCUCAACCUCCAACGCAUUCCACCACAUGAUGAUGCCUGAAGAGUCUUGGUUUUUUG [A2C A5G U7C C13A G48U A50U U92C C97U C123U]	-4.24
GCCCAGUAUGCCCUCAGAGCUCGAGAACAUCUUCGGAUGCAGAGGAGGCAGGCUUCGGUGACGCGAUAGCGCCAACGUCCUCAACCUCCAAUGCAUCCCAGCACAUGAUGAUGCCUGAAGAGCCUUGGUUCUUUG [A2C A6G C8A G61A C101G U131C]	-1.87
GCCCAAUCUGCCCUCGGAGCUCGAGAACAUCUUCGGAUGCAGAGGAGGAAGGCUGCGGUGGCGCGAUAGCGCCAACGUCCUCAACCUCCAAUGCAUCCCACCACAUGAUGAUGCCUGAACAGCUUUGGUUUUUUG [A2C A16G C49A U55G G120C C124U]	-1.14
GCCCAAUCUGCCCUCUGAGCUCGAGAACAUCUUCGGAUGCAGAGGAGGCAGGCUUCGGUGGCGCGAUAGCGACAACGUCCUCAACCUCCAAUGCAUCCCACCACAUGAUGAUGCCUGAAGAGCCAUGGUUUUUUG [A2C A16U C72A U125A]	-3.54
GCCCAAUCUGCCCUCAGAGCUCGAGAACAUCUUCGGUUGCAGAGGAGGCAGGCUUCGGUGGCGCGAUAGCGCUAACGUCCUCAACCUCCAAUACAUCCCACCACAUGAUGAUGCCUGAACAGCCUUGGUUUUUUG [A2C A37U C73U G93A G120C]	-2.44
GCCCAAUCUGCCCUCAGAGCUCGAGAACAUCUUCGGUUGCAGAGGAGGCAGGCUUCGGUGGCGCGAUAGCGCCAACGUCCUCAACCUCCAAUGCAUCCCACCACAUGAUGAUGCCUGAAGAGUCUUGGUUUUUUG [A2C A37U C123U]	-0.77
GCCCAAUCUGCCCUCAGAGCUCGAGAACAUCUUCGGUUGCAGAGGAGGCAGGCUUCGGUGGCGCGAUAGCGCCAACGGCCUCAACCUCCAAUGCAUCCCACCACAUGAUGAUGCCUGAAUAGCCUUGGUUUUUUG [A2C A37U U78G G120U]	-1.6
GCCCAAUCUGCCCUCAGAGCUCGAGAACAUCUUCGGAUGCAGAGGAGGCUGGCUUCGGAGGCGCGAUAGCGCCAACGUCCUCAACCUCCAAUGCAUCCCACCACAUGAUGCUGCCUGAAGCGCCUUGGUUUUAUC [A2C A50U U59A A111C A121C U133A G135C]	-1.62
GCCCAAUCUGCCCUCAGAGCUCGAGAACAUCUUCGGAUGCAGAGGAGGCAGGCUUCGGUGGCGCGAUAGCGCCAACGUCCUCAGCCUCCAAUGCAUCCUACCACAUGAUGAUGCCUGAAGAGCCUUGGUUUUUUG [A2C A84G C99U]	-6.59
GCCCAAUCUGCCCUCAGAGCUCGAGAACAUCUUCGGAUGCAGAGGAGGCAGGCUUCGGUGGCGCGAUAGCGCCAACGUCCUCAACCUCCAAUGCAUCCCCCCACAUGAAGAUGCCUGAAGAGCCUUGGUUUUUUG [A2C A100C U109A]	-6.4
GCUCAAUCUGCCCUCAGAGCUCGAGAACAUCUUCGGAUGCAGAGGAGGCAGGCUUCGGCGGCGCGAUAGCGCCAACGUCCUCAACCUCCAAUGCAUCCCACCAAAUGAUGAUGCCUGAAGAGCCUUGGUUUUUUG [A2C C3U U59C C104A]	-4.21
GCCAAAUCUGCCCUCAGAGCUCGAGAACAUCUUCGGAUGCAGAGGAGGCAGGCUUCGGUGGCGCGAUAGCGCCAACGUCCUCAACCUCCAAUGCAUCCCACCACAUGAUGAUGCCUGAAGAGCCUUGGUUUUUUG [A2C C4A]	-1.3
GCCAAAUCUGCCCUCAGAGCUCGAGAACAUCUUCGGAUGCAGAGGAGGCAGGCUUCGGUGGCGCGAUAGCGCCAACGUCCUCAUCCUCCAAUGCAUCCCACCACAUGAUGAUGCGUGAAGAGCCUUGGUUUUUUG [A2C C4A A84U C115G]	-5.82
GCCAAAUCUGCCCUCAGAGCUCGAGAACAUCUUCGGAUGCAGAGGAGGCAGGCUUCGGUGGCGCGAUAGCGCCAACGUCCUCAACCUCCAAUGCAUCCCACCACAUGGUGAUGCCUGAAGAGCCUUGGUUUUUUG [A2C C4A A108G]	-3.25
GCCAAAUCUGCCCUCAGAGCUCGAGAACAUCUUCGGAUGCAGAAGAGGUAGGCUUCGGUGGCACGAUAGCGCCAACGUCCUCAACCUCCAAUGCAUCCCACCACAUGAUGAUGCCUGAAGAGCCUUGGUUUUUUG [A2C C4A G44A C49U G63A]	-3.51
GCCUAAUCUGCCUUCAGAGCUCGAGAACAUCUUCGGAUGCAGAGGAGGCAGGCUUCGGUGGCGCGAUAGCGCCAACGUCCUCAACCUCCAAUGCAUCCCACCACAUGAUGAUGUCUGAAGAGCGUUGGUUUUUUG [A2C C4U C13U C114U C124G]	-1.63
GCCUAAUCUGCCCUCAGAGCUCGAGAACAUCUUCGUAUGCAGAGGAGGCAGGCUUCGGUGGCGCGAUAGCGCAAACGUCCUCAACCUCCAAUGCAUCCCACCAUAUGAUGAUGCCUGAAGAGCCUUGGUUUUUUG [A2C C4U G36U C73A C104U]	-2.65
GCCCAAUCUGGCGUCAGAGCUCGAGAACAUCUUCGGAUGCAUAGGAGGCAGGCUUCGGUGGCGCGAUAGCGCCAGCGUCCACAACCUCCAAUGCAUCCCACCACAUGAUGAUGCCUGAAGAGCCUUGGUUUUUUG [A2C C11G C13G G42U A75G U81A]	-4.31
GCCCAAUCUGUCCUUAGAGCUCGAGAACAUCUUCGGAUGCAGAGGAGGCAGGCUGCGGUGGCUCGAUAGCGCCAACGUCCUCAACCUCCGAUGCAUCCCACCACAUGAUGAUGCCUGAAGGGCCUUGGUUUUUUG [A2C C11U C15U U55G G63U A90G A121G]	-1.56
GCCCAAUCUGCUCUCAGAGCUCGAGAACAUCUUCGGAUGCAUAGGAGGCAGGCUUCGGUGGCGCGAUAGCUCCAACGUCCUCAUCCUCCAAUGAAUCCCACCACAUGAUGAUGCCUGAAGAGCCUUGGAUUUUUG [A2C C12U G42U G71U A84U C94A U129A]	-4.83
GCCCAAUCUGCCGUCUGAGCUCGAGAACAUCUUCGGAUGCAGAGGAGGCAGGCUUCGGUGGCGCGAUAGCGCCAACGUCCUCAACCUCCAAUGCAUCCCACCACAUGAUGAUGCCUGAAGAGCCUUGGUUUUUUG [A2C C13G A16U]	-4.01

Variant	polymerase ribozyme fitness (log ratio)
GCCCAAUCUGCCGUUAGAGCUCGAGAACAUCUUCGGAUGCAGAGGAGGCAGGCUUCGGUGGCGCGAUAGCGUCAACGUCCUCAACCUCCAAUGCAUCCCACCACAUGAUGAUGCCUGAAGAGCCUUGGUUUUUUG [A2C C13G C15U C72U]	-4.37
GCCCAAUCUGCCUUCAGAGCUCGAGAACAUCUUCGGAUGCAGAGGAGGCAGGCUUCGGUGGCGCGAUAGCGCCAACGUCCUCAACCUCCAAUGCAUCCCACCACAUGAUAAUGCCUGAAGAGCCUUGGUUUUUUG [A2C C13U G110A]	-2.59
GCCCAAUCUGCCCUAAGAGCUCGAAAACAUCUUCGGAUGCAGAGGAGGCAGGCUUCGGUGGCGCGAUAGCUCCAACGUCUUCAACCUCCAAUGCAUCCCACCACAUGAUGAUGCCUGAACAGCCUUGGUUUUUUC [A2C C15A G25A G71U C80U G120C G135C]	-4.64
GCCCAAUCUGCCCUCAGAGAUCGAGAACAUCUUCGGAUGCAGAGGAGGCAGGCUUCGGUGGCGCGAUAGCGCCAACGUUCUCAACCUCCAAUGCAUCCCACCACAUGAUGAUGCCUGAAGAUCCGUGGUUUUUUG [A2C C20A C79U G122U U125G]	-3.43
GCCCAAUCUGCCCUCAGAGCUCGAGAACAUGUUCGGAUGCAGAGGAGGCAGGCUUCGGUGGCGCGAUAGCGCCAACGUUCUCAACCUCCAAUGCAUCCCACCACAUGAUGAUGCCUUAAGAGCCUAGGUUUUUUG [A2C C31G C79U G117U U126A]	-4.9
GCCCAAUCUGCCCUCAGAGCUCGAGAACAUCUUCGGAUGGAGAGGAGGCAGGCUUCGGUGGCGCGAUAGCGCCAACGUCCUCAACCUCCAAUGCAUCCCACCACAUGAUGAUGCCUGAAGAGCCUUGGUUUUUUG [A2C C40G]	-2.5
GCCCAAUCUGCCCUCAGAGCUCGAGAACAUCUUCGGAUGCAGAGGAGGAAGGCUUCGGUGGCGCGAUAGCGCCAACGUCCUCAACCUCCAAUGCAUCCCACCACAUGAUGAUGCCUGAAGAGCCUUGGUUUUUUG [A2C C49A]	-1.83
GCCCAAUCUGCCCUCAGAGCUCGAGAACAUCUUCGGAUGCAGAGGAGGGAGGCUUCGGUGGCCCGAUAGCGCCUUCGUCCUCAACCUCCAAUGCAUCCCACCACAUGAUGAUGCCUGAAGAGCAUUGGUUUUUUG [A2C C49G G63C A74U A75U C124A]	-3.35
GCCCAAUCUGCCCUCAGAGCUCGAGAACAUCUUCGGAUGCAGAGGAGGCAGGAUUCGGUGGCGCGAUAGCGCCAACGUCCUCAACCUCCAAUGCAUCCCACCACAUGAUGAUGCCUGAAGAGCCUUGGUUUUUUG [A2C C53A]	-1.9
GCCCAAUCUGCCCUCAGAGCUCGAGAACAUCUUCGGAUGCAGAGGAGGCAGGUUUCGGUGGCGCGAUAGCGCCAACGUCCGCAACCUCCAAUGCAUCCCACCACAUGAUGAUGCCUGAAGAGCCUUGGUUUUUUG [A2C C53U U81G]	-4.15
GCCCAAUCUGCCCUCAGAGCUCGAGAACAUCUUCGGAUGCAGAGGAGGCAGGCUUUGGUGGCGCGAUAGCGCCAACGUCCUCAACCUCCAAUGCAUCCCACCACAUGAUGAUGCCUGAAGAGCCUUGGUUUUUUG [A2C C56U]	-0.967
GCCCAAUCUGCCCUCAGAGCUCGAGAACAUCUUCGGAUGCAGAGGAGGCAGGCUUCGGUGGUGCGAUAGCGCCAACGUCCUCAACCUCCAAUGCAUCCCACCACAUGAUGAUGCCUGAAGAGCCUUGGUUUUUUG [A2C C62U]	-2.03
GCCCAAUCUGCCCUCAGAGCUCGAGAACAUCUUCGGAUGCAGAGGAGGCAGGCUUCGGUGGUGCGAUAGCGCCAUCGUCCUCAACCUCCAAUGCAUCCCACCACAUGAUAAUGCCUGAAGAGCCUUGGUUUUUUG [A2C C62U A75U G110A]	-4.14
GCCCAAUCUGCCCUCAGAGCUCGAGAACAUCUUCGGAUGCAGAGGAGGCAGGCUUCGGUGGCGCGAUAGCGACAACGUCCUCAACCUCCAAUGCAUCCCACCACAUGAUGAUGCCUGAAGAGCCUUGGUUUUUUG [A2C C72A]	-2.14
GCCCAAUCUGCCCUCAGAGCUCGAGAACAUCUUCGGAUGCAGAGGAGGCAGGCUUCGGUGGCGCGAUAGCGACAACGUCCUCAACCUCCAAUGCAUCCCACCACAUGAUUAUGCCUGAAGAGCCUUGGUUUUUUG [A2C C72A G110U]	-4.2
GCCCAAUCUGCCCUCAGAGCUCGAGAACAUCUUCGGAUGCAGAGGAGGCAGGCUUCGGUGGCGCGAUAGCGUCAACGUCCUCAACCUCCAAUGCAUCCCACCACAUGAUGAUGCCUGAAUAGCCUUGGUUUUUUG [A2C C72U G120U]	-2.42
GCCCAAUCUGCCCUCAGAGCUCGAGAACAUCUUCGGAUGCAGAGGAGGCAGGCUUCGGUGGCGCGAUAGCGCCAAUGUCCUCAACCUCCAAUGCAUCCCACCACAUGAUGAUGCCUGAAGAGCCUUGGUUUUUUG [A2C C76U]	-2.06
GCCCAAUCUGCCCUCAGAGCUCGAGAACAUCUUCGGAUGCAGAGGAGGCAGGCUUCGGUGGCGCGAUAGCGCCAACGUACUCAACCUCCAAUGCAUCCCACCACAUGAUGAUGCCUGAAGAGCCUUGGCUUUUUG [A2C C79A U129C]	-2.39
GCCCAAUCUGCCCUCAGAGCUCGAGAACAUCUUCGGAUGCAGAGGAGGCAGGCUUCGGUGGCGCGAUAGCGCCAACGUCCUCAAUCUCCAAUGCAUCCCACCACAUGAUGAUGCCUGAAGAGCCUUGGUUUUUUG [A2C C85U]	-3.37
GCCCAAUCUGCCCUCAGAGCUCGAGAACAUCUUCGGAUGCAGAGGAGGCAGGCUUCGGUGGCGCGAUAGCGCCAACGUCCUCAACCUCCAAUGCAUCCCACAACAUGAUGAUGCCUGAAGAGCCUUGGUUUUUUG [A2C C102A]	-3.35
GCCCAAUCUGCCCUCAGAGCUCGAGAACAUCUUCGGAUGCAGAGGAGGCAGGCUUCGGUGGCGCGAUAGCGCCAACGUCCUCAACCUCCAAUGCAUCCCACCACAUGAUGAUGCUUGAAGAGCCUUGGUUUUUUG [A2C C115U]	-2.66
